molecular target: T1, Recombinant human HER2 ectodomain (human, UniProt P04626 23-652, biotinylated on primary amines (for SPR and crude extract ELISA)); experiment: SPR (ProteOn); biotinylated human HER2 on neutravidin chip, monovalent DARPin injected
T1 construct: extracellular domain; also called ErbB2; ectodomain of human HER2; not shown: Flag tag
Experimental: Protein binding kinetics of interesting purified HER2-binding DARPins were assayed by Surface Plasmon Resonance (SPR) analysis with a ProteOn array system (BioRad) using a setup, where biotinylated human HER2 was immobilized via neutravidin and the interaction was measured by adding free monovalent DARPin. The determination of Kd values was performed according to standard procedures.
SPR was measured using a ProteOn instrument (BioRad) and measurement was performed according standard procedures known to the person skilled in the art. The running buffer was PBS, pH 7.4, containing 0.005% Tween 20®. Neutravidin was covalently immobilized on a GLC chip (BioRad) to a level of about 8000 resonance units (RU). Immobilization of HER2 on the neutravidin coated chip was then performed. […] The signals (i.e. resonance unit (RU) values) of an uncoated reference cell and a reference injection (i.e. injection of running buffer only) were subtracted from the RU traces obtained after injection of […] (double-referencing). From the SRP traces obtained from the on-rate and off-rate measurements the on- and off-rate of the corresponding DARPin HER2 interaction can be determined.
Dissociation constants (Kd) were calculated from the estimated on- and off-rates using standard procedures known to the person skilled in the art.

Binder | Kd
DARPin #60 (designed binder, monovalent) MRGSHHHHHHGSDLGVKLLWAAARGQDDEVRELLKAGADVNAKDFQGITPLHIAAQSGHLEIVEVLLKAGADVNAKDVTGDTPLHLAAQHGHLEIVEVLLKAGADVNAQDERGWTPADLAADWGHEDIAEVLQKLN | 0.0117 nM
DARPin #56 (designed binder, monovalent) MRGSHHHHHHGSDLGQKLLIAASRGQDDEVRILLAAGADVNAKDFQGVTPLHIAAQSGHLEIVEVLLKAGADVNAKDVTGDTPLHLAAQHGHLEIVEVLLKAGADVNAQDERGWTPTDLAADWGHEDIAEVLQKLN | 2 nM
DARPin #12 (designed binder, monovalent) MRGSHHHHHHGSDLGKKLLEAARAGQDDEVRILMANGADVNAKDFYGITPLHLAAAYGHLEIVEVLLKHGADVNAHDWNGWTPLHLAAKYGHLEIVEVLLKHGADVNAIDNAGKTPLHLAAAHGHLEIVEVLLKYGADVNAQDKFGKTAFDISIDNGNEDLAEILQKLN | 1.41 nM
DARPin #14 (designed binder, monovalent) MRGSHHHHHHGSDLGAKLLIAATVGQDDEVRILLAAGADVNAKDTIGHTPLHRAAFVGQLEIVEVLLKAGADVNAQDDYGWTPADLAANSGHEDIAEVLQKLN | 1.88 nM
DARPin #16 (designed binder, monovalent) MRGSHHHHHHGSDLGIKLLQAANLGQDDEVRELLKAGADVNAKDSIGQTPLHWAARRGHLEIVEVLLKAGADVNAKDEYGVTPLHLAASLGHLEIVEVLLKAGADVNAQDESGETPADLAALHGHEDIAEVLQKLN | 2.67 nM
DARPin #17 (designed binder, monovalent) MRGSHHHHHHGSDLGLKLLQAANLGQDDEVRILLAAGADVNAKDSIGQTPLHWAARRGHLEIVEVLLKAGADVNAKDEYGVTPLHLAASLGHLEIVEVLLKAGADVNAQDTAGQTPADLAADDGHEDIAVVLQKLN | 2.3 nM
DARPin #19 (designed binder, monovalent) MRGSHHHHHHGSDLGKKLLEAARAGQDDEVRELLKAGADVNAKDEYGLTPLYLATAHGHLEIVEVLLKNGADVNAVDAIGFTPLHLAAFIGHLEIAEVLLKHGADVNAQDKSGKTPADLAAGAGHEDIAEVLQKLN | 0.944 nM
DARPin #21 (designed binder, monovalent) MRGSHHHHHHGSDLGKKLLEAARAGQDDEVRILMANGADVNATDIHGHTPLHLAAAMGHLEIVEVLLKNGADVNANDWRGFTPLHLAALNGHLEIVEVLLKNGADVNATDTAGNTPLHLAAWFGHLEIVEVLLKNGADVNAQDKFGKTAFDISIDNGNEDLAEILQKLN | 1.65 nM
DARPin #8 (designed binder, monovalent) MRGSHHHHHHGSDLGIKLLWAAAHGQDDEVRILLAADADVNAKDWYGTTPLHIAAVAGHLEIVEVLLKAGADVNAKDDFGTTPLHLAAYHGHLEIVEVLLKAGADVNAQDWQGQTPADLAAQDGHEDIAEVLQKLN | 0.483 nM
DARPin #53 (designed binder, monovalent) MRGSHHHHHHGSDLGAKLLWAAAKGQDDEVRILLAAGADVNAKDWEGVTPLHIAAHAGHLEIVEVLLKAGADVNAKDIIGWTPLHSAAVYGHLEIVEVLLKAGADVNAQDWYGTTPADLAAWWGHEDIAVVLQKLN | 1.46 nM

Further lines, results first:

Kd | Binder
0.0781 nM | DARPin #1 (designed binder, monovalent) MRGSHHHHHHGSDLGVKLLWAAARGQDDEVRILLAAGADVNAKDFQGITPLHIAAQSGHLEIVEVLLKAGADVNAKDVTGDTPLHLAAQHGHLVIVEVLLKAGADVNAQDERGWTPADLAADWGHEDIAEVLQKLN
0.875 nM | DARPin #2 (designed binder, monovalent) MRGSHHHHHHGSDLGVKLLWAAARGQDDEVRELLKAGADVNAKDFQGITPLHIAATSGHLEIVEVLLKAGADVNAKDITGETPLHHAADSGHLEIVEVLLKAGADVNAQDKAGVTPADLAAAWGHEDIAEVLQKLN
0.0131 nM | DARPin #3 (designed binder, monovalent) MRGSHHHHHHGSDLGIKLLFAAAKSQDDEVRILLAAGADVNAKDFQSVTPLHIAAQSGHLEIVEVLLKAGADVNAKDVTGDTPLHLAAQHGHLEIVEVLLKAGADVNAQDERGWTPADLAADWGHEDIAEVLQKLN
0.186 nM | DARPin #4 (designed binder, The list of constructs skips DARPin #4) MRGSHHHHHHGSDLGVKLLWAAARGQDDEVRELLKAGADVNAKDFQGITPLHIAAQSGHLEIVEVLLKAGADVNAKDVTGDTPLHLAAQHGHLEIVEVLLKAGADVNAQDERGKTPADLAADWGHEDIAEVLQKLN
0.0292 nM | DARPin #6 (designed binder, monovalent) MRGSHHHHHHGSDLGVNLLWAATRGQDDEVRILLAAGADVNAKDFEGVTPLHLAAQWGHLEIVEVLLKAGADVNAKDVTGDTPLHLAAQHGHLEIVEVLLKAGADVNAQDERGWTPADLAADWGHEDIAEVLQKLN
0.00927 nM | DARPin #54 (designed binder, monovalent) MRGSHHHHHHGSDLGIKLLFAAAKGQDDEVRELLKAGADVNAKDFQGVTPLHIAAQSGHLEIVEVLLKAGADVNAKDVTGDTPLHLAAQHGHLEIVEVLLKAGADVNAQDERGWTPADLAADWGHEDIAEVLQKLN
0.0873 nM | DARPin #55 (designed binder, monovalent) MRGSHHHHHHGSDLGIKLLIAASHGQDDEVRILLAAGANVNAKDFQGVTPLHIAAQSGHLEIVEVLLKAGADVNAKDVTGDTPLHLAAQHGHLEIVEVLLKAGADVNAQDERGWTPADLAADWGHEDIAEVLQKLN
0.0604 nM | DARPin #57 (designed binder, monovalent) MRGSHHHHHHGSDLGIKLLWAAAQGQDDEVRILLAAGADVNAKDFQGVTPLHIAAQSGHLEVVEVLLKAGADVNAKDVTGDTPLHLAAQHGHLEIVEVLLKAGADVNAQDERGWTPADLAADWGHEDIAEVLQKLN
0.0413 nM | DARPin #58 (designed binder, monovalent) MRGSHHHHHHGSDLGFKLLFAAAKSQDDEVRILLAAGADVNAKDFQGVTSLHIAAQSGHLEIVEVLLKAGADVNAKDVTGDTPLHLAAQHGHLEIVEVLLKAGADVNAQDERGWTPADLAADWGHEDIAEVLQKLN
0.0333 nM | DARPin #59 (designed binder, monovalent) MRGSHHHHHHGSDLGVKLLWAAARGQDDEVRELLKAGADVNAKDFQGITPLHIAATNGHLEIVEVLLKAGADVNAKDITGETPLHHAADSGHLEIVEVLLKAGADVNAQDKAGVTPADLAAAWGHEDIAEVLQKLN
1.03 nM | DARPin #10 (designed binder, monovalent) MRGSHHHHHHGSDLGVKLLWAASHGQDDEVRILLAAGADVNAKDFFGITPLHQAAWGHLEIVEVLLKAGADVNAKEEDGTTPLHLAATHGHLEIVEVLLKAGADVNAQDWYGTTPADLAAWWGHEDIAEVLQKLN
0.256 nM | DARPin #11 (designed binder, monovalent) MRGSHHHHHHGSDLGIKLLFAASRGQDDEVRILLAAGADVNAKDFEGITPLHAAARSGHLEIVEVLLKAGADVNAKDVEGWTPLHYAASYGHLEIVEVLLKAGADVNAQDNHGATPADLAAQWGHEDIAEVLQKLN
0.468 nM | DARPin #15 (designed binder, monovalent) MRGSHHHHHHGSDLGAKLLVAATSGQDDEVRILLAAGADVNAKDRIGFTPLHRAAFVGHLEIVEVLLKAGADVNAQDDFGHTPADLAASLGHEDIAEVLQKLN
0.335 nM | DARPin #18 (designed binder, monovalent) MRGSHHHHHHGSDLGKKLLEAARAGQDDEVRILMANGADVNAKDEYGLTPLYLATAHGHLEIVEVLLKNGADVNAVDAIGFTPLHLAAFIGHLEIAEVLLKHGADVNAQDKFGKTAFDISIGNGNEDLAEILQKLN
0.258 nM | DARPin #20 (designed binder, monovalent) MRGSHHHHHHGSDLGKKLLEAARAGQDDEVRELLKAGADVNAKDEYGLTPLYLATAHGHLEIVEVLLKAGADVNAVDAIGFTPLHLAAFIGHLEIAEVLLKAGADVNAQDKFGKTPADIAAGAGNEDIAEVLQKLN
1.3 nM | DARPin #51 (designed binder, monovalent) MRGSHHHHHHGSDLGNKLLIAASVGQDDEVRILLAAGADVNAKDETGWTPLHLAAAWGHLEIVEVLLKAGADVNAKDVKGQTPLHLAAAYGHLEIVEVLLKAGADVNAQDNDGYTPADLAARYGHEDIAEVLQKLN
0.137 nM | DARPin #52 (designed binder, monovalent) MRGSHHHHHHGSDLGVKLLWAAAHGQDDEVRILLAADADVNAKDWYGTTPLHIAAVAGHLEIVEVLLKAGADVNAKDDFGTTPLHAAADYGHLEIVEVLLKAGADVNAQDYTGHTPADLAAVYGHEDIAAVLQKLN

molecular target: Human HER2 expressed on tumour cells (human, UniProt P04626 23-1255); experiment: cell-based or functional assay

Binder | % activity vs. DARPin # 41, BT474 cell proliferation | IC50 [nM], inhibition of BT474 cell proliferation (BrdU)
DARPin #35 (designed binder) MRGSHHHHHHGSDLGIKLLFAAAKGQDDEVRILLAAGADVNAKDFEGYTPLHVAAYDGHLEIVEVLLKAGADVNAKDSQGRTPLHEAAYSGHLEIVEVLLKAGADVNAQDDAGETPADLAAAWGHEDIAEVLQKLGGGGSGGGGSRSDLGIKLLQAANLGQDDEVRILLATGADVNAKDSIGQTPLHWAARRGHLEIVEVLLKAGADVNAKDEYGVTPLHLAASLGHLEIVEVLLKAGADVNAQDESGETPADLAALHGHEDIAEVLQKLN | 63% | 4.63 nM

Reference: patent US20150299265A1 (Molecular Partners, published 2015)
